Measurements: US20230348603A1 (VERSEAU THERAPEUTICS, published 2023)

T1: Human VSIG4-L-His (human, UniProt Q9Y279 20-283)
T1 construct: long isoform ECD with His tag; also called hVSIG4-L
T1 sequence: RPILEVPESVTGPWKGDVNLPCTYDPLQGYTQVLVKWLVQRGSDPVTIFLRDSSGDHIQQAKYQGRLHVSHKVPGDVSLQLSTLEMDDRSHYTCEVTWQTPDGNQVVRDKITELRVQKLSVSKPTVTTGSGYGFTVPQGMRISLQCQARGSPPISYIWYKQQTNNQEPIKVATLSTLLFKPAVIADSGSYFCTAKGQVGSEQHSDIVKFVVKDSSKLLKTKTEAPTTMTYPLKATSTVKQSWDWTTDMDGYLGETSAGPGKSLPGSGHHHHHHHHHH

T2: Cynomolgus Monkey VSIG4-L-His (cynomolgus monkey)
T2 construct: ECD with His tag; also called cyVSIG4-L; cyno VSIG4-L-His
T2 chain: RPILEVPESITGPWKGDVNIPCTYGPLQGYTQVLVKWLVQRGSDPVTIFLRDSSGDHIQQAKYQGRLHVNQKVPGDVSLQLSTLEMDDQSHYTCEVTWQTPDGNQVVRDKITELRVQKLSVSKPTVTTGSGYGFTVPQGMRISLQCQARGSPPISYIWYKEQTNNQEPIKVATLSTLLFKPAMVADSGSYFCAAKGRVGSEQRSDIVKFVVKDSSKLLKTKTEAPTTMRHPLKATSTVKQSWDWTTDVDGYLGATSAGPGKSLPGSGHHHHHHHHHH


Assays:
Human VSIG4-L-Fc [1] = target: T3, Human VSIG4-L-Fc (human); assay: blocking ELISA, biotin-iC3b on coated hVSIG4-L-Fc
T3 construct: also called hVSIG4-L-Fc; hVSIG4-L
T3 sequence (chain, as listed by the source limits assumed): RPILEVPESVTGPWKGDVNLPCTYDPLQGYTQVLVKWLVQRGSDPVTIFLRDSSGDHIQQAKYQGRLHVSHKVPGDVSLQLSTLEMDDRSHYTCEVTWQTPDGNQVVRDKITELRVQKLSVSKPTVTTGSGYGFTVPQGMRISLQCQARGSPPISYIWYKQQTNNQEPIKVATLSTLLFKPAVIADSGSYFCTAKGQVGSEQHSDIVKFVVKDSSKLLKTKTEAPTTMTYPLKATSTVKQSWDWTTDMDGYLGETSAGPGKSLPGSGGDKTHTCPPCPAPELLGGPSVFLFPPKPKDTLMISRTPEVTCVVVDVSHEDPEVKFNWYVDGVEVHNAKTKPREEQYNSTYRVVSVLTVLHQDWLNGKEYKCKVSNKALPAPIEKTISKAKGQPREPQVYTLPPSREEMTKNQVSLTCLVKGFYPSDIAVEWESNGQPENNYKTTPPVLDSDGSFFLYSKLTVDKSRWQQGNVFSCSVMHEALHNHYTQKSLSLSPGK
Protocol: (§1) Coated microplates were blocked with casein (Sigma-Aldrich, St. Louis, MO) at 1% in PBS. […] One hundred ill of the mixed sample was added onto the coated wells and incubated for one hour at room temperature. […] OD at 450 nm was determined using a standard absorbance microplate reader.

Human VSIG4-L-His = target: T1, Human VSIG4-L-His; assay: SPR (Biacore T200), Fab P.E. 1:5 over immobilised antigen
[2] = target: T2, Cynomolgus Monkey VSIG4-L-His; assay: ELISA, Fab P.E. 1:5 on coated antigen;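 also: mouse Fab P.E. samples in 1% skimmed milk PBS, bound to antigen-coated wells for 1 h at room temperature, read as absorbance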
Protocol: (§2) Coated microplates were blocked with dried skimmed milk at 4% in PBS. P.E. samples of the mouse unique Fab sequences were diluted 1:5 in assay buffer (1% dried skimmed milk in PBS), and 100 μl of diluted sample was added onto the coated wells and incubated for one hour at room temperature. […] Optical density (OD) at 450 nm was determined using a standard absorbance microplate reader.

Human VSIG4-L-Fc [3] = target: T3, Human VSIG4-L-Fc; assay: ELISA, Fab P.E. 1:5 on coated antigen;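 also: mouse Fab P.E. samples in 1% skimmed milk PBS, bound to antigen-coated wells for 1 h at room temperature, read as absorbance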
Protocol: as §2

Human VSIG4-S-Fc = target: T4, Human VSIG4-S-Fc (human); assay: ELISA, Fab P.E. 1:5 on coated antigen;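 also: mouse Fab P.E. samples in 1% skimmed milk PBS, bound to antigen-coated wells for 1 h at room temperature, read as absorbance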
T4 construct: short isoform ECD fused to human Fc1; also called hVSIG4-S
Protocol: as §2

Human VSIG4-L-Fc [4] = target: T3, Human VSIG4-L-Fc; assay: blocking ELISA, biotin-C3b on coated hVSIG4-L-Fc
Protocol: as §1

| Binder | Percent Blocking iC3b (Human VSIG4-L-Fc [1]) | koff (Human VSIG4-L-His) | ELISA OD450 [2] | ELISA OD450 (Human VSIG4-L-Fc [3]) | ELISA OD450 (Human VSIG4-S-Fc) | Percent Blocking C3b (Human VSIG4-L-Fc [4]) |
| --- | --- | --- | --- | --- | --- | --- |
| 15A06 mouse Fab (periplasmic extract) (Fab, V domains shown, mouse Fab with C-terminal His6-c-myc tag) VH: QVQMKQSGPSLVRPSQTLSLTCSVTGDSITSGYWNWIRKFPGDKFEYLGYISYSGFTYYNPSLKSRVSITRDTSKNQYYLQLHSVTTEDTATYYCASSKYGSSLGFPYWGQGTLVTVSA VL: DVVMTQTPLSLPVSLGDQASISCRSSQSLVHSNGNTYLHWYLQKPGQSPKLLIYKVSNRFSGVPDRFSGSGSGTDFTLKISRVEAEDLGVYFCSQSTHVPFTFGSGTKLEIK | 1.4% | 0.0015 s⁻¹ | 0.05 OD450 | 4.42 OD450 | 0.06 OD450 |  |
| 12A08 mouse Fab (periplasmic extract) (Fab, V domains shown, mouse Fab with C-terminal His6-c-myc tag) VH: EVMLVESGGGLVKPGGSLKLSCAASGFTFDDFYMYWVRQTPEKRLEWVASISDGGTYTYYPDSVKGRFTISRDNAKNTLYLQLSSLKSEDTAMYYCARGVDKYYYAMDYWGQGTSVTVSS VL: QILLTQSPAIMSASPGEKVTITCSASSSVSYMHWFQQKPGTSPKLWIYSTSNLASGVPARFSGSGSGTSYSLTISRMEAEDAATYYCQQRSSYPLTFGAGTKLELK | 53.4% | 0.013 s⁻¹ | 4.27 OD450 | 4.45 OD450 | 4.09 OD450 | 57.6% |
| 12A12 mouse Fab (periplasmic extract) (Fab, V domains shown, mouse Fab with C-terminal His6-c-myc tag) VH: QVQMKQSGAELAKPGASVKMSCKASGYTFTNYWMHWVKQRPGQGLEWIGYINPSTGYTDYNQNFKDRATLTADKSSSTAYMQLSSLTSEDSAVYYCIRGSDYYGRDYWGQGTTLTVSS VL: DIQMTQTTSSLSASLGDRVTISCRASQDISNYLNWYQQKPDGTLKLLIYYTSRLHSGVPSRFSGSGSGTDYSLTISNLEQEDIATYFCRQGNTLPWTFGGGTKLEIK | 76.5% | 0.0038 s⁻¹ | 4.37 OD450 | 4.42 OD450 | 4.18 OD450 | 74.8% |
